Results taken from patent publication US8815528B2, “Methods and systems for detecting MHC class I binding peptides” (Beckman Coulter, Inc., priority 2002, dated 2014).

Legend:
[1] = molecular target: HLA-A2m monomer in ternary complex with binding peptide Mart-1 26-35L (human); assay: fluorimetric plate assay, avidin-coated plate, 40 min at room temperature; 1 µg/ml antibody, 0.5 µg/ml monomer
[2] = molecular target: HLA-A2m monomer in ternary complex with binding peptide Mart-1 26-35L (human); assay: fluorimetric plate assay, avidin-coated plate, 40 min at room temperature; 0.5 µg/ml antibody, 0.5 µg/ml monomer
[3] = molecular target: STREPTACTIN® (mutated streptavidin molecule) (Streptomyces avidinii, UniProt P22629, E68V/S69T/V71R); conditions: biotin-binding site of STREPTACTIN; read-out: binding affinity (Kd); cited from earlier work
STREPTACTIN® (mutated streptavidin molecule), sequence (P22629 38-163 E68V/S69T/V71R): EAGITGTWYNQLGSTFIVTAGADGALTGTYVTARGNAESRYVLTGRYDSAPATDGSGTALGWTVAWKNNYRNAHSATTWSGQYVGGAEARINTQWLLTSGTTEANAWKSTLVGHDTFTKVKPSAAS

Substance	Fluorescence units (FU) [1]	Fluorescence units (FU) [2]	Kd [3]
Anti-HLA-class I monoclonal antibody conjugated to FITC (clone: B9.12.1)	600 FU	300 FU	
short peptide sequence binding the biotin-binding site of a mutated streptavidin molecule (STREPTACTIN) [streptagII]			~1000 nM
